Results: publication PMC7081238, “BrtB is an O-alkylating enzyme that generates fatty acid-bartoloside esters” (Nature Communications, 2020)

Substrate: C#CCCCCC(=O)O
Experiment: purified protein
Format: biochemical, Synechocystis salina
Conditions: co-substrate bartoloside G (5) 100 μM, 20 mM HEPES, 50 mM NaCl, 10 mM MgCl2, 5 mM CaCl2, pH 8.0, 37 °C, standard error, n = 3

B1: NStrep-BrtB (Synechocystis salina LEGE 06099) (protein)
chain: MANPFDVALTNLNSLYSGIPDVPVLQTYNSLNPYDISLTNLNNLSNFVIEPAVLPTAAGTYGPQISEIAFALGGGIITGALADLLSTELGIEIENEALITKFLSFWTPGSDYAFGQDYVEFIQGREGFDTIIGYDPGFNSALAPVQIDFVLGGPRQDFNFFAPLDEPARYVLGDWRTPYYVDNDIQSEGLNEFMYVSLFTLNPDEFSPDNAENHRIQLYGSLDNYYFVPTTVVIDGSALDPSLPSIPVPGTEIYYKTGQVFADLIAIVPFQDPNDPNLISAWIDFEGYLPPEQADLSGQTANPLLSGSPLLQLGYEGIDMGTATALAPDGDIYVAGSTSSLLGPFPRGGSDNFIARYNDDGSLEWIVQFGSTEFDIITDIVSDSAGNVYATGWTRGNVETGFGLAPGVQDNWVAKFDANGSQLWVEQFTIDGYLDRSMGIALDEVNGRIHLTGHSNTDGSVADTNDPAIVPNGNVVTWIAGFDANTGAEDYRNVFEVAQTSNSRGRIDEGFGIDVDDAGNVFSTGWAGENAYDVYLVKSDTDGAVLWTKSFGTGSNATQSYAWDVASDGTNAYILGWTQGELNTFRDQIPPTDEFAGNATAPLTPQNAYQGGTFDAFVAAYDTDGTELWTWHVGGTGDDGTFFGKIVAAGDFVYATGYTDGFIGTLGGSNAGDYDAWIGKFDKLTGQTAWIQQIGSTKLDYATGISVDGDDIFVTGFTEGSLGGLNGGASDAWVAKLNQDGALEAFNVSAPIAPPAPFAPPAPLTPPAPPAPDLSSLQSLGSTPQPTYPALGDSYGTNPFGTQPTQPTYDLSSMYQNAYYGGFGGYSGYGY
notes: N-terminal Strep-Tag, pET-51b, E. coli BL21 (DE3) Rosetta; cloning primers imply N-terminus MANPF and C-terminus GYGY; two protein preparations pooled 1:1
Km: 234 ± 41 µM
